# Data as given in article PMC11456556.
# Tests used:
# alpha-synuclein monomer [1] = biological target: T1, alpha-synuclein monomer (human, UniProt P37840 1-140); assay: DNase I footprinting
# beta-synuclein = beta-synuclein (UniProt Q16143 1-134); assay: MST
# gamma-synuclein = gamma-synuclein (UniProt O76070 1-127); assay: MST
# alpha-synuclein monomer [2] = biological target: T1, alpha-synuclein monomer; assay: EIS
# Sequence of beta-synuclein (Q16143 whole entry): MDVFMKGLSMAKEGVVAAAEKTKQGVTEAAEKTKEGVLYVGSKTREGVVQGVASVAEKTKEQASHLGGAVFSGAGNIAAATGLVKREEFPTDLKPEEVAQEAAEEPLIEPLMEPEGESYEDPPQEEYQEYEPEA
# Sequence of gamma-synuclein (O76070 whole entry): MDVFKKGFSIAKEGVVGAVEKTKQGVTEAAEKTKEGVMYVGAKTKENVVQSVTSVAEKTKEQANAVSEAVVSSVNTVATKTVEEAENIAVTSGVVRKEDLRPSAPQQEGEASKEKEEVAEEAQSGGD
binder,measurement,setting,value
a-syn-1 (5'-fluorescein) (ssDNA) DNA: ATAGTCCCATCATTCATTGTAAGGAAACGCTACGGGGTGGGTACGGCAAGATATTAGCAAGTGTCA,Kd,alpha-synuclein monomer [1],28 ± 14 nM
a-syn-1 (5'-Cy5) (ssDNA) DNA: ATAGTCCCATCATTCATTGTAAGGAAACGCTACGGGGTGGGTACGGCAAGATATTAGCAAGTGTCA,binding result,beta-synuclein,no binding
same,binding result,gamma-synuclein,no binding
"a-syn-1 (thiol, on gold electrode) (ssDNA, thiol (end not stated), immobilized on gold) DNA: ATAGTCCCATCATTCATTGTAAGGAAACGCTACGGGGTGGGTACGGCAAGATATTAGCAAGTGTCA",Kd,alpha-synuclein monomer [2],70 ± 3 nM
